Assay: soluble on expression in E. coli; label from the status in PepcDB or PDB records

Row | Sequence | soluble on expression in E. coli
1 | METKDLIVIGGGINGAGIAADAAGRGLSVLLLEAQDLACATSSASSKLIHGGLRYLEHYEFRLVSEALSERETLLKMAPHIIFPMRFRLPHQPHLRPAWMIRIGLFMYDNIGKRVSLPASKGLKFGADSVLKPELKQGFEYSDCWVDDARLVVLNAQEVAKRGGEVRTRTKVTRARREQGVWIVDAVDSLTGETFTWRAKGLVNATGPWVKEFFDDGLQLKSPYGIRLIKGSHIVVPRVHNQPQAYILQNKDHRIVFVIPWQDDYSIIGTTDVEYKGNPHDVKIDDNEVGYLLDVYNDHFKQQLTRDDIVWTYSGVRPLCDDESDSPQAITRDYTLSVDDDNGQAPLLSVFGGKLTTYRKLAEHALDKLHKYYPQAGKAWTKDAVLPGGDIAGTRDDYAAALRRRFNLPESLTRRYSRTYGSNSELILANVKGLSDLGEDFGHDLYEAELRYLVEKEWAVTLDDVIWRRTKLGMRFDDAQKQRISDWLVSYRQQQMAKAGLEHHHHHH | soluble
2 | METKQSMDYIIKGPGGTTKPIAPKLITVNPLNIIIESNSGQIDKTLELKNIYPCRIAFRVRTNGPTRYTVCPSKGFLSNGEKVAIQITLIDGTKYQSNHQFIVQAMPSPGDFADRKFIWKQPNFLGIFTNTRVKTMRPAQSLPKSNPKSPAKVSTPTDSGMSSPVASSESLVTPSVPSWSKSPSSPIDHGKFAENINDLSVQVKKAIDEKNTRTSEMVSVVNQIKAVEVDLDRQAQLVNELSERVKRGEIQYSNLVMHERSLRVELGRLKNNEAESIGQ | not soluble
3 | METNFIGDDYGPLFHYQYRLIVIGDSTVGKSSLLRYFTEGKMAEISDPTVGVDFYARMIELRPGYRVKLQLWDTAGQEKFRSITKSYYRNSVGVLAIYDTTNRESFEHVENWVKEAALNLGGPSPSKCVFQLVGTKSDMDSQRQVNYEEGEYFAKYHKMKFIETSSRTGDNVNEAFHMIAQEIQNRVDDGELRPVDGWEGLKTGIMRSQSVCLSERSFPQNSSAGACGC | not soluble
4 | METTLVIIRGNSGSGKTTLAQALQRRVGHHTLLVSQDVVRRDMLMSHDYPGNISIGLIEQIVCYGLGRVPVVIVEGILARDRYGKMLARLSQSFPRVLTYYFEVSFATTLARHQKRHRDFGVEDMRRWWLPHDTLGVANEVLIGEQQDLTTEVQQIMTTIHDCDLEHHHHHH | not soluble
5 | METYDVLVIGGGPGGSTAARYAAKYGLRTLMIEKRPEIGSPVRCGEGLSKGILNEADIKPDKSFIANEVKGARIYGPSEKRPIILQSEKAGNEVGFVLERDKFDKHLAALAAKAGADVWVKSPALGVIKEDGKVAGAKIRHENNVVEVRAKMVIAADGFESEFGRWAGLKSVILARNDIISALQYRMINIDVDPDYTDFYLGSIAPGGYIWVFPKGEGMANVGIGSSINFIHNRLELKNYLDRFIENHPGLKKGQDIQLVTGGVSVSKVKMPITMPGLMLVGDAARLIDPITGGGIANAIVSGMYAAQVSKEAIESNDYSPQMMGKYEKLVKDRFERKHLRNWVAKEKLAQLSDETLDKLVDIVSEQVLTTISVEAILKAIAEKYPEVVKELEDLILEHHHHHH | soluble
6 | MEVEVGQIVNTHGIKGEVKVKSNSDFTETRFQPGEQLLVKHNNTEIVYTVASYRIHKGFHMLRFEGINNINEIEHLKGDYIYQERDHQDIELGEHEYYYSDIIGCTVFKDDDTPIGRVINIFETGANDVWVVKGEKEYLIPYIEDVVKDIDIETKTIKITPMEGLLDLEHHHHHH | soluble
7 | MEVSTSYCTPAVNFKYGSFQDSDVSMREDDLFRMGSYNSQGYYADGTHLDGSIGEEDETSSGSNDQHMDFEEDDFDMESSMTEDLVDEDEEEEDEEDNDEWTNQKRTDNQNSVAYYAAMEMLRIRFPFQSIAIRISDFCCLQEKDLLNDTMIDFYLNHIVEHVLPDSNGSNVTVLPSIFWHNLSLRQHAFDSEDEKMMSDEQKMDLKFGDLHDFVADFDLQDFDYIVVPVNEWEHWSLAVICHPFTAQARTVIFDSQLTADLNNLQNMATLIESFMKYSYEKRTGNAMPFPLPCILPQRMPQQTNNFDCGIFIAEFARRFLLSPPKDPATISLCFHPLATLL | not soluble
8 | MEVVIIAFLTQKEFEDLGFDEVEDFEKMEKRASHAVNLYCRNRYDYKDLKKEIALVQKAVKRAIAYQIAYLNDSGVMTAEDKQSFAGISLGRTSISYTVGHGQGSQQKTLADRFNLCLDAENELLAVGLGYTGISYDR | not soluble
9 | MEYLNVAEIKALLNSTISKLNPRYTSNYMIVTAILTGARLSEIAGLTWNDINFNFNTININKSYDYFAKSFKPTKNKSSNRIIKINNTLCDVLKELRTNNTDLVFKNKRGLIPTSNAVNKALRARLEELNINRRNFHFHSLRHSHVAFLLSQGIDIYPIAQRLGHSDITTTTRTYAYLIEEYKDKNDAIIIAGLDKLEHHHHHH | soluble
